For experiment [1], the target named is T1, REV-ERBα ligand-binding domain (residues 274–614 with an internal deletion of residues 324–422) (human, UniProt P20393 274-614, internal deletion of residues 324–422).
T1 sequence: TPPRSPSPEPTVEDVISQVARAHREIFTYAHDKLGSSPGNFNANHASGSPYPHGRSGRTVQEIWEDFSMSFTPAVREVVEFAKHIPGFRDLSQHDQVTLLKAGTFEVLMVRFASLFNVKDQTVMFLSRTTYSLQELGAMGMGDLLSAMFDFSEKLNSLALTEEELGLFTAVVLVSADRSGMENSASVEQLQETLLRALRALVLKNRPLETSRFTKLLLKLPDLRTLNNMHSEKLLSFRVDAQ
As to the kind of experiment: FP; no heme, + SNAP (NO donor).

Experiment [2] concerns the target T2, REV-ERBβ ligand-binding domain (human, UniProt Q14995 212-579).
T2 chain: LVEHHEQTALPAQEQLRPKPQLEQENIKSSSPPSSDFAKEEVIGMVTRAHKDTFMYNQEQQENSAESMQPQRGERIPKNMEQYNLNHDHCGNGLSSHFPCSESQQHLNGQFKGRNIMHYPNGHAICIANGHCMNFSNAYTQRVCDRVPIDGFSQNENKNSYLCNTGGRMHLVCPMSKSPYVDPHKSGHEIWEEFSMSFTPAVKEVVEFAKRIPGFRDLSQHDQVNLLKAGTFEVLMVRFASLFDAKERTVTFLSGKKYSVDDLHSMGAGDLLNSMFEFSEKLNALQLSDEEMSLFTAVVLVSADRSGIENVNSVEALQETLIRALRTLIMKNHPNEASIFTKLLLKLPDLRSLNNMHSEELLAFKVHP
Briefly: FP; no heme, + SNAP (NO donor).

In experiment [3] the target is T1, REV-ERBα ligand-binding domain …. Briefly: FP; heme-bound, control.
For experiment [4], the target named is T2, REV-ERBβ ligand-binding domain. Briefly: FP; heme-bound, control.
For experiment [5], the target named is T3, REV-ERBα ligand-binding domain (residues 274–614 with an internal deletion of residues 324–422) (human, UniProt P20393 274-614, internal deletion of residues 324–422).
T3 construct: REV-ERBα, human, GenBank CAB53540, residues 274–614 with an internal deletion of residues 324–422; heme is a non-covalent ligand; Modified pET28a vector; also called REV-ERBα LBD; source: E. coli BL21-Gold(DE3) pLysS, with or without hemin in the medium, purified (Ni-NTA)
T3 sequence (looked up): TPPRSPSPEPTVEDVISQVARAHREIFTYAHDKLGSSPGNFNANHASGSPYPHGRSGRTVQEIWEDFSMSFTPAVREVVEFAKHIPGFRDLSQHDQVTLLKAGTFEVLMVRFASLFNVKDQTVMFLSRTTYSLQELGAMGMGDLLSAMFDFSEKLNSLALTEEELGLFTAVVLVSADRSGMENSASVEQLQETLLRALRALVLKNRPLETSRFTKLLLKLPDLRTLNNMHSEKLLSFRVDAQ
Briefly: fluorescence polarisation; 110 nM N-terminally fluorescein-labelled NCOR peptide with a dilution series of LBD; 100 mM Tris pH 8.2, 150 mM NaCl; apo or heme-bound LBD, with or without the NO donor SNAP (1,200 μM); 384-well plates. The note with it: both partners purified.

Experiment [6] has as its target T1, REV-ERBα ligand-binding domain …. As to the kind of experiment: FP; no heme, control.
The target in experiment [7] is T2, REV-ERBβ ligand-binding domain. Briefly: FP; no heme, control.
The target of experiment [8] is T1, REV-ERBα ligand-binding domain …. Briefly: FP; heme-bound, + SNAP (NO donor).
In experiment [9] the target is T2, REV-ERBβ ligand-binding domain. As to the kind of experiment: FP; heme-bound, + SNAP (NO donor).

No end group written: not given here.

B1: NCOR interaction domain I (IDI) peptide (peptide)
peptide: fluorescein-DPASNLGLEDIIRKALMGSF
notes: also called NCOR peptide; Nuclear Receptor Co-repressor peptide
What is called Kd is the concentration at which binding is half-saturated. Turning to B1, the Kd in experiment [1] is 3.7 µM; in experiment [2], 20.4 µM; in experiment [3] it was 51.1 µM; in experiment [4] it was 193 µM; in experiment [6], 4.1 µM; in experiment [7], 16.8 µM. Also, the equilibrium dissociation constant (Kd) in experiment [8] worked out at 2.9 µM; in [9], 99.7 µM. Moreover, in experiment [5], the binding result is reported as “binds”.

For the origin of these results see PMC2652392, “The Structural Basis of Gas-Responsive Transcription by the Human Nuclear Hormone Receptor REV-ERBβ” (PLoS Biology, 2009).
